Substrate in this series: N[C@@H](CS)C(=O)O
Put plainly: purified protein. The format is biochemical, Escherichia coli. Particulars: 50 mM Tris pH 7.6, room temperature, anaerobic, Fe(II)/DTT-reactivated [4Fe-4S] enzyme.

Consider one protein from article PMC9040844, “Escherichia coli Uses a Dedicated Importer and Desulfidase To Ferment Cysteine” (mBio, 2022).

Broadly, the Km is the substrate concentration at which the rate is half of its maximum.

B1: CyuA (Escherichia coli K-12) (protein)
chain: MFDSTLNPLWQRYILAVQEEVKPALGCTEPISLALAAAVAAAELEGPVERVEAWVSPNLMKNGLGVTVPGTGMVGLPIAAALGALGGNANAGLEVLKDATAQAIADAKALLAAGKVSVKIQEPCDEILFSRAKVWNGEKWACVTIVGGHTNIVHIETHDGVVFTQQACVAEGEQESPLTVLSRTTLAEILKFVNEVPFAAIRFILDSAKLNCALSQEGLSGKWGLHIGATLEKQCERGLLAKDLSSSIVIRTSAASDARMGGATLPAMSNSGSGNQGITATMPVVVVAEHFGADDERLARALMLSHLSAIYIHNQLPRLSALCAATTAAMGAAAGMAWLVDGRYETISMAISSMIGDVSGMICDGASNSCAMKVSTSASAAWKAVLMALDDTAVTGNEGIVAHDVEQSIANLCALASHSMQQTDRQIIEIMASKAR
notes: full ORF in pET16b, N-terminal His10 tag kept, about 47 kDa; expressed in E. coli SR011 (BL21(DE3) katG katE) with isc operon
B1: the Michaelis-Menten constant (Km) was 200 µM.
